Test results from patent US20180263259A1.

Biological target: ground chicken feathers (keratin)

- Soluble dry matter yield (%): 48.3%
Substance: FoodPro® PXT (enzyme)
